Two molecules from US20240042051A1, “MCL-1 INHIBITOR ANTIBODY-DRUG CONJUGATES AND METHODS OF USE” (Novartis AG, priority 2020, published 2024) can be followed below.

The target of assay [1] is Cynomolgus Monkey CD48 (recombinant, CynoCD48 aa29-217) (cynomolgus monkey (Macaca fascicularis)). The experiment in a line: SPR Biacore T200, antibody captured on protein A chip, CD48 as analyte, 25 °C, 1:1 model. On the technique in general: In SPR one partner is held on a chip, and binding of the other changes the refractive index at the surface.
The target in the next assay is 2249 (Homo sapiens) (UniProt P09326). The experiment in a line: ELISA, HEK293T culture supernatant (1:10) with the CD48-mouse Ig construct, antibody at 25, 250 and 500 ng/mL, detection goat anti-mouse IgG (H+L) HRP, Mean OD450-570. (In general: ELISA stands for enzyme-linked immunosorbent assay.)
Chain of 2249 (Homo sapiens) (P09326 27-220): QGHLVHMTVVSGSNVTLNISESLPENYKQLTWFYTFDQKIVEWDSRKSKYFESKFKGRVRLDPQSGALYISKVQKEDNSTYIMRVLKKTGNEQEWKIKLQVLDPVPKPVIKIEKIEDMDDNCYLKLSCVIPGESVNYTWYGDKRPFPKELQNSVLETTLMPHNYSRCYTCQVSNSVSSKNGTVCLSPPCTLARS
Assay [2] deals with hCD48EC:mouse-Ig (non-mutated human CD48-mouse IgG1 fusion protein) (human) (UniProt P09326). The assay is described as above.
Chain of hCD48EC:mouse-Ig (non-mutated human CD48-mouse IgG1 fusion protein) (human) (P09326 27-220, change not shown): as the sequence (P09326 27-220) above

B1: NY938 (antibody, human IgG1, kappa, V domains shown)
VH: QVQLVQSGAEVKKPGASVKVSCKASGYTFTEYTMHWVRQAPGQGLEWMGGINPDTGDTSYNQKFTGRATLTVDKSTSTAYMELSSLRSEDTAVYYCARAQFWTTPRFAYWGQGTLVTVSS
VL: DIQMTQSPSSLSASVGDRVTITCKASQDVGTAVAWYQQKPGKVPKLLIYWASTRHTGVPSRFSGSGSGTDFTLTISSLQPEDVATYYCQQYSTYPITFGQGTKLEIKR
As to B1, in assay [1], the Kd (in general, the concentration at which binding is half-saturated) is 1.5 nM; the koff (usually the rate constant with which the complex falls apart) was 0.00037 s⁻¹; the kon (usually a measure of how fast the partners come together) came out at 250000 M⁻¹ s⁻¹.

B2: humanized CD48A (antibody, V domains shown)
VH: QVQLVQSGSELKKPGASVKVSCKASGYTFTDFGMNWVRQAPGQGLEWMGWINTFTGEPSYGNVFKGRFVFSLDTSVSTAYLQISSLKAEDTAVYYCARRHGNGNVFDSWGQGTLVTVSS
VL: EIVLTQSPDFQSVTPKEKVTITCRASQSIGSNIHWYQQKPDQSPKLLIKYTSESISGVPSRFSGSGSGTDFTLTINSLEAEDAATYYCQQSNSWPLTFGGGTKVEIKR
Take B2: the EC50 (read off the curve) – broadly, the concentration that produces a half-maximal response – with 2249 (Homo sapiens) stood at 0.03 µg/mL; in assay [2] it was 0.02 µg/mL.
